Laboratory results published in patent US9388387B2, “Differentiation of human embryonic stem cells” (Janssen Biotech, Inc., priority 2008, dated 2016).

System: cells of the human embryonic stem cell line H1 differentiated to stage 6
Test: Real-time PCR gene expression profile of stage 6 cultures +/- activin A, enriched using a 40 μm filter
Assay type: cell-based
Conditions: 10 ng/ml activin A added at stage 6 for seven days, H1 cells passage 43, FIG. 4 panels a-f
Experimental: (1:30 dilution) coated dishes and exposed to RPMI medium supplemented with 2% BSA (Catalog#152401, MP Biomedical, Ohio), and 100 ng/ml activin A (R&D Systems, MN) plus 20 ng/ml WNT-3a (Catalog#1324-WN-002, R&D Systems, MN) plus 8 ng/ml of bFGF (Catalog#100-18B, PeproTech, NJ), for one day followed by treatment with RPMI media supplemented with 2% BSA and 100 ng/ml activin A plus 8 ng/ml of bFGF for an additional two days. Next the cultures were treated with DMEM/F12+2% BSA+50 ng/ml FGF7+0.25 μM Cyclopamine-KAAD (#239804, Calbiochem, CA) for two days, followed by four days incubation in DMEM/F12+1% B27 (Invitrogen, CA)+50 ng/ml FGF7+0.25 μM Cyclopamine-KAAD+2 μM Retinoic acid (RA) (Sigma, MO)+100 ng/ml of Noggin (R & D Systems, MN).
Cells were differentiated into pancreatic endocrine cells by incubating the cells in DMEM/F12+1% B27 (Invitrogen, CA)+100 ng/ml Noggin+1 μM DAPT (a gamma-secretase inhibitor) (Catalog#565784, Calbiochem, CA)+1 μM ALK5 inhibitor II (Catalog#616452, Calbiochem, Ca)+100 ng/ml of Netrin-4 (R&D Systems, MN) for three days followed by additional seven days incubation in DMEM/F12+1% B27 (Invitrogen, CA)+1 μM ALK5 inhibitor II (Calbiochem, Ca). […] At each stage cell number was calculated using a hemocytometer and RNA was collected for PCR analysis. […]

B1: activin A: a member of the TGF-β superfamily; TGF-β receptor agonist (R&D Systems, MN) (protein, UniProt P08476 311-426, looked up)
Inhibin beta A chain: GLECDGKVNICCKKQFFVSFKDIGWNDWIIAPSGYHANYCEGECPSHIAGTSGSSLSFHSTVINHYRMRGHSPFANLKSCCVPTKLRPMSMLYYDDGQNIIKKDIQNMIVEECGCS
expression of pancreatic endocrine markers (pdx-1, nkx6-1, Pax4, nkx2.2, insulin, glucagon): significantly boosted expression of all key pancreatic endocrine markers
